Assay results as given in patent publication US20240166765A1 (ICONIC THERAPEUTICS, published 2024).
Where two headings read alike, the source gives them in different places.

Key:
human TF ECD-His6 [1] = molecular target: T1, human TF ECD-His6 (human, UniProt P13726 33-251); assay: SPR (Biacore), antibody on chip, TF-His titrated
T1 construct: made in Expi293 cells; the entry holds the ECD with the C-terminal TG-His6; also called TF-His; hTF

cynomolgus TF ECD-His6 [2] = molecular target: T2, cynomolgus TF ECD-His6 (cynomolgus monkey (Macaca fascicularis)); assay: SPR (Biacore), antibody on chip, TF-His titrated
T2 construct: made in Expi293 cells; also called TF-His; cTF
T2 chain: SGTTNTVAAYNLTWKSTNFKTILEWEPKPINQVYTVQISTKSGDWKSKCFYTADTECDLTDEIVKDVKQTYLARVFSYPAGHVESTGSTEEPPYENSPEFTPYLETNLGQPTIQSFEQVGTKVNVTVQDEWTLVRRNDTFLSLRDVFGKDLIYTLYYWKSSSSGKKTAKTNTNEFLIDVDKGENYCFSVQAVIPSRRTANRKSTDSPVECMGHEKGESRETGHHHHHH

[3] = molecular target: rTF (rat TF) on HEK293 cells (rat, UniProt P42533 29-252); assay: live cell staining of transfected HEK293, flow cytometry
human TF ECD-His6 [4] = molecular target: T1, human TF ECD-His6; assay: BLI (ForteBio Octet)
cynomolgus TF ECD-His6 [5] = molecular target: T2, cynomolgus TF ECD-His6; assay: BLI (ForteBio Octet)
relipidated TF [6] = molecular target: T3, relipidated TF (UniProt P13726 33-295, limits assumed); assay: cell-based or functional assay
relipidated TF [7] = molecular target: T3, relipidated TF; assay: cell-based or functional assay; remark: listed apart in the source
relipidated TF [8] = molecular target: T3, relipidated TF; assay: cell-based or functional assay; remark: listed apart in the source
relipidated TF [9] = molecular target: T3, relipidated TF; assay: cell-based or functional assay; remark: listed apart in the source
[10] = molecular target: T4, human Tissue Factor on MDA-MB-231 cells (human, UniProt P13726 33-295); assay: flow cytometry, MDA-MB-231 cells; binding of 20 nM FVII-Fc-Alexa488 (competitor) left at 83 nM Ab
T4 construct: also called TF; hTF

[11] = molecular target: T4, human Tissue Factor on MDA-MB-231 cells; assay: cell-based or functional assay
[12] = molecular target: T4, human Tissue Factor on MDA-MB-231 cells; assay: cell-based or functional assay; remark: listed apart in the source
rabbit TF-His = molecular target: T5, rabbit TF-His (rabbit (Oryctolagus cuniculus), UniProt P24055 33-250); assay: SPR (Biacore), antibody captured by anti-human IgG on CM5 chip, rabbit TF-His in solution, 1:1 model
T5 construct: also called rabbit TF ECD-His

pig TF-His = molecular target: T6, pig TF-His (pig (Sus scrofa)); assay: SPR (Biacore), antibody captured by anti-human IgG on CM5 chip, pig TF-His in solution, 1:1 model
T6 construct: also called pig TF ECD-His; pTF
T6 chain: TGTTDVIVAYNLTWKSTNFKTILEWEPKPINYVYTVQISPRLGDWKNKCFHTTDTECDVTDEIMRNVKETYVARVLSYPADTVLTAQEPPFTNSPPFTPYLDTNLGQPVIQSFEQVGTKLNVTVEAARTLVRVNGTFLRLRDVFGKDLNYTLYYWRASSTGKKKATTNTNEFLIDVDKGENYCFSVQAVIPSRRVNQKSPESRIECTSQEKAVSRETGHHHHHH

T5 sequence (P24055 other isoform, or with tags, fused parts or gaps): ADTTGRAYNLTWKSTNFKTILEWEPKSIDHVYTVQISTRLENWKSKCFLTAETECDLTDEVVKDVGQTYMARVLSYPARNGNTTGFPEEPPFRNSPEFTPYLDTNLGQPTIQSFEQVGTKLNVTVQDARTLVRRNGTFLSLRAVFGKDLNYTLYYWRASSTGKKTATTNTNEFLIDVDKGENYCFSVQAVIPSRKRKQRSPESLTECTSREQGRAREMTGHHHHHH
Chain of rTF (rat TF) on HEK293 cells (P42533 29-252): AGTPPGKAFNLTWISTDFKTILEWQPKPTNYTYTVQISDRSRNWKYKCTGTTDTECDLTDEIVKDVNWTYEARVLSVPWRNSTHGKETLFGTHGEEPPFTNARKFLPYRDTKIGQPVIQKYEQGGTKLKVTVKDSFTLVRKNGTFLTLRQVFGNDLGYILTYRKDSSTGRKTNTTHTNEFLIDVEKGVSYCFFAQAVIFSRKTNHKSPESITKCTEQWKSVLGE

B1: 1F (antibody, human IgG1, V domains shown)
VH: EVQLLESGGGLVQPGGSLRLSCAASGFTFSDYAMGWVRQAPGKGLEWVSTISGSGGLTYYADSVKGRFTISRDNSKNTLYLQMNSLRAEDTAVYYCAKAPYGYYMDVWGKGTTVTVSS
VL: not shown
notes: human IgG1
For B1, the Kd (human TF ECD-His6 [1]) was 0.31 nM, the Kd (cynomolgus TF ECD-His6 [2]) was 0.26 nM and the binding result [3] was “no binding (tested: 15 µg/ml (100 nM))”. For the same binder, the Kd (human TF ECD-His6 [4]) was 1.28 nM, the Kd (cynomolgus TF ECD-His6 [5]) was 1.43 nM and the “decrease of peak IIa concentration, TGA with 10 min pre-incubation, 100 nM Ab” value (relipidated TF [6]) was 93%. The “decrease of peak IIa concentration, TGA without pre-incubation, 100 nM Ab” value (relipidated TF [6]) was 92%, the “TGA without pre-incubation, 10 nM Ab: % ETP” value (relipidated TF [7]) was 58% and the “TGA without pre-incubation, 10 nM Ab: % Peak IIa” value (relipidated TF [7]) was 21%. The “TGA without pre-incubation, 10 nM Ab: ETP” value (relipidated TF [7]) was 1400 nM·min, the “TGA without pre-incubation, 10 nM Ab: Lag Time” value (relipidated TF [7]) was 12.1 min and the “TGA without pre-incubation, 10 nM Ab: Peak IIa” value (relipidated TF [7]) was 83 nM. For the same binder, the “TGA without pre-incubation, 10 nM Ab: ttPeak” value (relipidated TF [7]) was 19.8 min, the “TGA without pre-incubation, 50 nM Ab: % Peak IIa” value (relipidated TF [7]) was 8% and the “TGA without pre-incubation, 50 nM Ab: Lag Time” value (relipidated TF [7]) was 27.2 min. The “TGA without pre-incubation, 50 nM Ab: Peak IIa” value (relipidated TF [7]) was 32 nM, the “TGA without pre-incubation, 50 nM Ab: ttPeak” value (relipidated TF [7]) was 36.8 min and the “TGA without pre-incubation, 100 nM Ab: % Peak IIa” value (relipidated TF [7]) was 7%. For the same binder, the “TGA without pre-incubation, 100 nM Ab: Lag Time” value (relipidated TF [7]) was 25.9 min, the “TGA without pre-incubation, 100 nM Ab: Peak IIa” value (relipidated TF [7]) was 29 nM and the “TGA without pre-incubation, 100 nM Ab: ttPeak” value (relipidated TF [7]) was 37.9 min.

B2: 39A (antibody, human IgG1, V domains shown)
VH: QVQLVQSGAEVKKPGSSVKVSCKASGGTFSSNAIGWVRQAPGQGLEWMGSIIPIIGFANYAQKFQGRVTITADESTSTAYMELSSLRSEDTAVYYCARDSGYYYGASSFGMDVWGQGTTVTVSS
VL: EIVMTQSPATLSVSPGERATLSCRASQSVSSNLAWYQQKPGQAPRLLIYGASTRATGIPARFSGSGSGTEFTLTISSLQSEDFAVYYCEQYNNLPLTFGGGTKVEIK
notes: human IgG1
B2 was tested, and the “TGA with 10 min pre-incubation, 10 nM Ab: % Peak IIa” value (relipidated TF [8]) was 11%, the “TGA with 10 min pre-incubation, 10 nM Ab: Lag Time” value (relipidated TF [8]) was 20.9 min and the “TGA with 10 min pre-incubation, 10 nM Ab: Peak IIa” value (relipidated TF [8]) was 30 nM. The “TGA with 10 min pre-incubation, 10 nM Ab: ttPeak” value (relipidated TF [8]) was 30.8 min, the “TGA with 10 min pre-incubation, 50 nM Ab: % Peak IIa” value (relipidated TF [8]) was 8% and the “TGA with 10 min pre-incubation, 50 nM Ab: Lag Time” value (relipidated TF [8]) was 29 min. The “TGA with 10 min pre-incubation, 50 nM Ab: Peak IIa” value (relipidated TF [8]) was 21 nM, the “TGA with 10 min pre-incubation, 50 nM Ab: ttPeak” value (relipidated TF [8]) was 39.7 min and the “TGA with 10 min pre-incubation, 100 nM Ab: % Peak IIa” value (relipidated TF [8]) was 6%. For the same binder, the “TGA with 10 min pre-incubation, 100 nM Ab: Lag Time” value (relipidated TF [8]) was 32.1 min, the “TGA with 10 min pre-incubation, 100 nM Ab: Peak IIa” value (relipidated TF [8]) was 17 nM and the “TGA with 10 min pre-incubation, 100 nM Ab: ttPeak” value (relipidated TF [8]) was 43.2 min. For the same binder, the Kd (human TF ECD-His6 [1]) was 0.09 nM, the Kd (cynomolgus TF ECD-His6 [2]) was 0.08 nM and the binding result [3] was “no binding (tested: 15 µg/ml (100 nM))”. The Kd (human TF ECD-His6 [4]) was 0.83 nM, the Kd (cynomolgus TF ECD-His6 [5]) was 0.57 nM and the “TGA without pre-incubation, 10 nM Ab: % ETP” value (relipidated TF [9]) was 58%. The “TGA without pre-incubation, 10 nM Ab: % Peak IIa” value (relipidated TF [9]) was 24%, the “TGA without pre-incubation, 10 nM Ab: ETP” value (relipidated TF [9]) was 1330 nM·min and the “TGA without pre-incubation, 10 nM Ab: Lag Time” value (relipidated TF [9]) was 12.4 min. For the same binder, the “TGA without pre-incubation, 10 nM Ab: Peak IIa” value (relipidated TF [9]) was 84 nM, the “TGA without pre-incubation, 10 nM Ab: ttPeak” value (relipidated TF [9]) was 20.7 min and the “TGA without pre-incubation, 50 nM Ab: % Peak IIa” value (relipidated TF [9]) was 8%. The “TGA without pre-incubation, 50 nM Ab: Lag Time” value (relipidated TF [9]) was 33.1 min, the “TGA without pre-incubation, 50 nM Ab: Peak IIa” value (relipidated TF [9]) was 29 nM and the “TGA without pre-incubation, 50 nM Ab: ttPeak” value (relipidated TF [9]) was 43.2 min. The “TGA without pre-incubation, 100 nM Ab: % Peak IIa” value (relipidated TF [9]) was 6%, the “TGA without pre-incubation, 100 nM Ab: Lag Time” value (relipidated TF [9]) was 38.1 min and the “TGA without pre-incubation, 100 nM Ab: Peak IIa” value (relipidated TF [9]) was 22 nM. The “TGA without pre-incubation, 100 nM Ab: ttPeak” value (relipidated TF [9]) was 48.3 min, the “decrease of peak IIa concentration, TGA with 10 min pre-incubation, 100 nM Ab” value (relipidated TF [6]) was 93% and the “decrease of peak IIa concentration, TGA without pre-incubation, 100 nM Ab” value (relipidated TF [6]) was 91%. For the same binder, the “TGA without pre-incubation, 10 nM Ab: % ETP” value (relipidated TF [7]) was 55%, the “TGA without pre-incubation, 10 nM Ab: % Peak IIa” value (relipidated TF [7]) was 20% and the “TGA without pre-incubation, 10 nM Ab: ETP” value (relipidated TF [7]) was 1330 nM·min. For the same binder, the “TGA without pre-incubation, 10 nM Ab: Lag Time” value (relipidated TF [7]) was 12.1 min, the “TGA without pre-incubation, 10 nM Ab: Peak IIa” value (relipidated TF [7]) was 82 nM and the “TGA without pre-incubation, 10 nM Ab: ttPeak” value (relipidated TF [7]) was 19.6 min. The “TGA without pre-incubation, 50 nM Ab: % Peak IIa” value (relipidated TF [7]) was 7%, the “TGA without pre-incubation, 50 nM Ab: Lag Time” value (relipidated TF [7]) was 30.5 min and the “TGA without pre-incubation, 50 nM Ab: Peak IIa” value (relipidated TF [7]) was 30 nM. For the same binder, the “TGA without pre-incubation, 50 nM Ab: ttPeak” value (relipidated TF [7]) was 40 min, the “TGA without pre-incubation, 100 nM Ab: % Peak IIa” value (relipidated TF [7]) was 6% and the “TGA without pre-incubation, 100 nM Ab: Lag Time” value (relipidated TF [7]) was 28.9 min. For the same binder, the “TGA without pre-incubation, 100 nM Ab: Peak IIa” value (relipidated TF [7]) was 26 nM and the “TGA without pre-incubation, 100 nM Ab: ttPeak” value (relipidated TF [7]) was 40.1 min.

B3: 25G (antibody, human IgG1, kappa, V domains shown)
VH: QVQLVQSGAEVKKPGASVKVSCKASGYTFRSYGISWVRQAPGQGLEWMGWVAPYNGNTNYAQKLQGRVTMTTDTSTSTAYMELRSLRSDDTAVYYCARDAGTYSPYGYGMDVWGQGTTVTVSS
VL: DIQMTQSPSTLSASVGDRVTITCRASQSISSWLAWYQQKPGKAPKLLIYKASSLESGVPSRFSGSGSGTEFTLTISSLQPDDFATYYCQQFQSLPPFTFGGGTKVEIKR
notes: Human anti-TF IgG1
In the case of B3, the “% FVIIa” value [10] is reported as 93%, the “% FXa, 12.5 nM Ab” value [11] is reported as 99% and the “% FXa, 25 nM Ab” value [11] is reported as 109%. For the same binder, the “% FXa, 100 nM Ab” value [11] was 116%, the “% IL8, 2.56 nM Ab” value [12] was 60% and the “% IL8, 6.4 nM Ab” value [12] was 22%. The “% IL8, 16 nM Ab” value [12] was 16%, the “% IL8, 40 nM Ab” value [12] was 10% and the “% IL8, 100 nM Ab” value [12] was 9%.

B4: 25A (antibody, human IgG1, V domains shown)
VH: QVQLVQSGAEVKKPGASVKVSCKASGYTFDVYGISWVRQAPGQGLEWMGWIAPYNGNTNYAQKLQGRVTMTTDTSTSTAYMELRSLRSDDTAVYYCARDAGTYSPFGYGMDVWGQGTTVTVSS
VL: DIQMTQSPSTLSASVGDRVTITCRASQSISSWLAWYQQKPGKAPKLLIYKASSLESGVPSRFSGSGSGTEFTLTISSLQPDDFATYYCQQFQSLPPFTFGGGTKVEIK
notes: Human IgG1; also called antibody 25A
Binder B4 has a Kd (rabbit TF-His) of 50.5 nM and a Kd (pig TF-His) of 18.7 nM.

B5: 25G (antibody, human IgG1, kappa, V domains shown)
VH: QVQLVQSGAEVKKPGASVKVSCKASGYTFRSYGISWVRQAPGQGLEWMGWVAPYNGNTNYAQKLQGRVTMTTDTSTSTAYMELRSLRSDDTAVYYCARDAGTYSPYGYGMDVWGQGTTVTVSS
VL: DIQMTQSPSTLSASVGDRVTITCRASQSISSWLAWYQQKPGKAPKLLIYKASSLESGVPSRFSGSGSGTEFTLTISSLQPDDFATYYCQQFQSLPPFTFGGGTKVEIKR
notes: Human IgG1; also called antibody 25G
For B5, the Kd (rabbit TF-His) was 75.5 nM and the Kd (pig TF-His) was 26 nM.
